Patent US20210347873A1 (SHANGHAI PHARMAEXPLORER, published 2021)

Columns and labels:
[1] = biological target: biotinylated hBLyS-ECD (human) (UniProt Q9Y275); test: blocking ELISA: biotinylated hBLyS-ECD on coated BAFF R, antibody 4 nM
[2] = biological target: biotinylated hBLyS-ECD (human) (UniProt Q9Y275); test: blocking ELISA: biotinylated hBLyS-ECD on coated BAFF R, antibody 20 nM
[3] = biological target: biotinylated hBLyS-ECD (human) (UniProt Q9Y275); test: blocking ELISA: biotinylated hBLyS-ECD on coated BAFF R, antibody 0.0064 nM
[4] = biological target: cynomolgus BLyS (full length, arginine to histidine at position 132) on CHO-K1 cells (cynomolgus); test: flow cytometry, CHO-K1 cynoBLyS cells, antibody 0.00427 nM
[5] = biological target: biotinylated hBLyS-ECD (human) (UniProt Q9Y275); test: ELISA, biotinylated hBLyS-ECD captured on streptavidin; antibody 66.7 nM
[6] = biological target: human BLyS (full length, arginine to histidine at position 132) on CHO-K1 cells (human) (UniProt Q9Y275); test: flow cytometry, CHO-K1 hBLyS cells, antibody 2.67 nM
[7] = biological target: biotinylated hBLyS-ECD (human) (UniProt Q9Y275); test: ELISA, biotinylated hBLyS-ECD captured on streptavidin; antibody 0.00427 nM
[8] = biological target: biotinylated hBLyS-ECD (human) (UniProt Q9Y275); test: ELISA, biotinylated hBLyS-ECD captured on streptavidin; antibody 13.3 nM
[9] = biological target: human BLyS (full length, arginine to histidine at position 132) on CHO-K1 cells (human) (UniProt Q9Y275); test: flow cytometry, CHO-K1 hBLyS cells, antibody 66.7 nM
[10] = biological target: cynomolgus BLyS (full length, arginine to histidine at position 132) on CHO-K1 cells (cynomolgus); test: flow cytometry, CHO-K1 cynoBLyS cells, antibody 0.0213 nM
[11] = biological target: biotinylated hBLyS-ECD (human) (UniProt Q9Y275); test: ELISA, biotinylated hBLyS-ECD captured on streptavidin; antibody 0 nM (blank)
[12] = biological target: biotinylated hBLyS-ECD (human) (UniProt Q9Y275); test: ELISA, biotinylated hBLyS-ECD captured on streptavidin; antibody 0.0213 nM
[13] = biological target: human BLyS (full length, arginine to histidine at position 132) on CHO-K1 cells (human) (UniProt Q9Y275); test: flow cytometry, CHO-K1 hBLyS cells, antibody 0.534 nM
[14] = biological target: human BLyS (full length, arginine to histidine at position 132) on CHO-K1 cells (human) (UniProt Q9Y275); test: flow cytometry, CHO-K1 hBLyS cells, antibody 0.0213 nM
[15] = biological target: human BLyS (full length, arginine to histidine at position 132) on CHO-K1 cells (human) (UniProt Q9Y275); test: flow cytometry, CHO-K1 hBLyS cells, antibody 0.00427 nM
[16] = biological target: biotinylated hBLyS-ECD (human) (UniProt Q9Y275); test: blocking ELISA: biotinylated hBLyS-ECD on coated BAFF R, antibody 100 nM
[17] = biological target: cynomolgus BLyS (full length, arginine to histidine at position 132) on CHO-K1 cells (cynomolgus); test: flow cytometry, CHO-K1 cynoBLyS cells, antibody 2.67 nM
[18] = biological target: T1, biotinylated hBLyS-ECD (human, UniProt Q9Y275 134-285, biotinylated with Biotin-X-X-NHS (molar ratio 7:1); sites not stated); test: ELISA on captured biotinylated hBLyS-ECD; antibody 2.67 nM
T1 construct: also called biotinylated immunogen; biotinylated hBLvS-ECD

[19] = biological target: T1, biotinylated hBLyS-ECD; test: ELISA on captured biotinylated hBLyS-ECD; antibody 0.534 nM
[20] = biological target: T1, biotinylated hBLyS-ECD; test: BAFF R-coated ELISA, biotinylated hBLyS-ECD bound in presence of antibody 4 nM
[21] = biological target: T1, biotinylated hBLyS-ECD; test: BAFF R-coated ELISA, biotinylated hBLyS-ECD bound in presence of antibody 0.0064 nM
[22] = biological target: T1, biotinylated hBLyS-ECD; test: ELISA on captured biotinylated hBLyS-ECD; antibody 13.3 nM
[23] = biological target: T1, biotinylated hBLyS-ECD; test: BAFF R-coated ELISA, biotinylated hBLyS-ECD bound in presence of antibody 0.8 nM
[24] = biological target: T1, biotinylated hBLyS-ECD; test: BAFF R-coated ELISA, biotinylated hBLyS-ECD bound in presence of antibody 100 nM
[25] = biological target: extracellular domain of human BLyS protein (hBLyS-ECD), His-tagged, Ala134-Leu285 (human, UniProt Q9Y275 134-285); test: cell-based or functional assay
[26] = biological target: T1, biotinylated hBLyS-ECD; test: ELISA on captured biotinylated hBLyS-ECD; antibody 0.0213 nM

Sequence of extracellular domain of human BLyS protein (hBLyS-ECD), His-tagged, Ala134-Leu285 (Q9Y275 134-285): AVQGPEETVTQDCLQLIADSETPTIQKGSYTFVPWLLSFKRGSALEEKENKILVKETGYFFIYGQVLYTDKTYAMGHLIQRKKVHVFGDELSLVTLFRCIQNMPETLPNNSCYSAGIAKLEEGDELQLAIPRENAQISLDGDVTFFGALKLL
T1 sequence (Q9Y275 134-285): as above
Sequence of biotinylated hBLyS-ECD (human) (Q9Y275 134-285): as above
Sequence of human BLyS (full length, arginine to histidine at position 132) on CHO-K1 cells (human) (Q9Y275 whole entry R130H, the tested form may be a part): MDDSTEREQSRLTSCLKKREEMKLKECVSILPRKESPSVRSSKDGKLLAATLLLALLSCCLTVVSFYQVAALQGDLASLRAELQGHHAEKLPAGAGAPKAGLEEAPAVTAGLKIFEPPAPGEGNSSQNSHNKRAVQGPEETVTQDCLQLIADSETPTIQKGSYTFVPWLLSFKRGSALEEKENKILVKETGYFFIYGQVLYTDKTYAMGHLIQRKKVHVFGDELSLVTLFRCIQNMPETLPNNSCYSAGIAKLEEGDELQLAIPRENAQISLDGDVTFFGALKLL
Sequence of cynomolgus BLyS (full length, arginine to histidine at position 132) on CHO-K1 cells (cynomolgus) (Q9Y275 other isoform, or with tags, fused parts or gaps limits assumed): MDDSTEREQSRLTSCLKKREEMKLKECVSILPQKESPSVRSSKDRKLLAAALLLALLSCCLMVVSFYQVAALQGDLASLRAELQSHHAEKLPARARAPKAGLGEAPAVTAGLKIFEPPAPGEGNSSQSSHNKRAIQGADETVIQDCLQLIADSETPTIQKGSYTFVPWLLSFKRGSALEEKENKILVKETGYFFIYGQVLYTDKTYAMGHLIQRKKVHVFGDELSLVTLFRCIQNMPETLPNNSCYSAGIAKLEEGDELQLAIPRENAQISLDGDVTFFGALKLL

mIgG Control (antibody)
OD450 nm [1]: 1.41 OD450 nm
OD450 nm [2]: 1.36 OD450 nm
OD450 nm [3]: 1.4 OD450 nm
MFI [4]: 20.4 MFI
OD450 nm [5]: 0.0708
MFI [6]: 31 MFI
OD450 nm [7]: 0.0695
OD450 nm [8]: 0.0627
MFI [9]: 33.6 MFI
MFI [10]: 19.8 MFI
OD450 nm [11]: 0.0574
OD450 nm [12]: 0.0595
MFI [13]: 30.7 MFI
MFI [14]: 32.7 MFI
MFI [15]: 30.9 MFI
OD450 nm [16]: 1.3 OD450 nm
MFI [17]: 21.2 MFI

hIgG Control (antibody)
OD450 nm [1]: 1.09 OD450 nm
OD450 nm [2]: 1.06 OD450 nm
OD450 nm [3]: 1.14 OD450 nm
MFI [4]: 22 MFI
OD450 nm [5]: 0.148
MFI [6]: 33.1 MFI
OD450 nm [7]: 0.108
OD450 nm [8]: 0.102
MFI [9]: 52 MFI
MFI [10]: 22.4 MFI
OD450 nm [11]: 0.103
OD450 nm [12]: 0.111
MFI [13]: 33.4 MFI
MFI [14]: 33.6 MFI
MFI [15]: 32.3 MFI
OD450 nm [16]: 1.22 OD450 nm
MFI [17]: 22.7 MFI

B1: c97A3C2H4 (antibody, V domains shown)
VH: EVKLVESGGGLVQPGGSLKLSCAASGFTFSTYTMSWVRQTPEKRLEWVAYISYGGGSTSYPDTVKGRFTISRDNAKNTLYLQMSSLKSEDTAIYYCTRHVTVVENSMDYWGQGTSVTVSS
VL: DILLTQSPDILSVSPGERVSFSCRASQSIGTSIHWYQQRTNGSPRLLIKYVSESFSGTPSRFSGSGSGTAFTLTINSVESEDIADYYCQQTHSWPWTFGGGTKLEIK
notes: also called chimeric antibody c97A3C2H4
OD450 nm [18]: 2.25 OD450 nm
OD450 nm [19]: 1.91 OD450 nm
OD450 nm [20]: 1.07 OD450 nm
OD450 nm [21]: 1.96 OD450 nm
OD450 nm [22]: 3.33 OD450 nm
OD450 nm [23]: 1.47 OD450 nm
OD450 nm [24]: 0.474 OD450 nm
OD450 nm (as headed), mouse B lymphocyte proliferation; antibody 0 nM [25]: 4440
OD450 nm (as headed), mouse B lymphocyte proliferation; antibody 0.000256 nM [25]: 5020
OD450 nm (as headed), mouse B lymphocyte proliferation; antibody 0.00128 nM [25]: 4870
OD450 nm (as headed), mouse B lymphocyte proliferation; antibody 0.0064 nM [25]: 5280
OD450 nm (as headed), mouse B lymphocyte proliferation; antibody 0.032 nM [25]: 4450
OD450 nm (as headed), mouse B lymphocyte proliferation; antibody 0.16 nM [25]: 3740
OD450 nm (as headed), mouse B lymphocyte proliferation; antibody 0.8 nM [25]: 1460
OD450 nm (as headed), mouse B lymphocyte proliferation; antibody 4 nM [25]: 578
OD450 nm (as headed), mouse B lymphocyte proliferation; antibody 20 nM [25]: 424
OD450 nm (as headed), mouse B lymphocyte proliferation; antibody 100 nM [25]: 444
OD450 nm [26]: 0.936 OD450 nm

B2: c8E7D9C7F5 (antibody, V domains shown)
VH: QVQLQQSGVELARPGASVKLSCKASGYTFTSYGISWVKQRTGQALEWIGEIYPRSGNTYYNEKFKGKATLTADKSSSTAYMELRSLTSEDSAVYFCARSGPITTLVATDYGMDYWGQGTSVTVSS
VL: DIVLTQSPASLAVSLGQRATISCRASKSVSTSSYSYMHWYQQKPGQPPKLLIKFASNLESGVPARFSGSGSGTDFTLNIHPVEEEDAATYYCQHSREFPYTFGGGTKLEIK
notes: also called chimeric antibody c8E7D9C7F5
OD450 nm [18]: 2.21 OD450 nm
OD450 nm [19]: 1.97 OD450 nm
OD450 nm [20]: 1.04 OD450 nm
OD450 nm [21]: 2.01 OD450 nm
OD450 nm [22]: 3.32 OD450 nm
OD450 nm [23]: 1.56 OD450 nm
OD450 nm [24]: 0.53 OD450 nm
OD450 nm (as headed), mouse B lymphocyte proliferation; antibody 0 nM [25]: 4750
OD450 nm (as headed), mouse B lymphocyte proliferation; antibody 0.000256 nM [25]: 4970
OD450 nm (as headed), mouse B lymphocyte proliferation; antibody 0.00128 nM [25]: 5150
OD450 nm (as headed), mouse B lymphocyte proliferation; antibody 0.0064 nM [25]: 5280
OD450 nm (as headed), mouse B lymphocyte proliferation; antibody 0.032 nM [25]: 4620
OD450 nm (as headed), mouse B lymphocyte proliferation; antibody 0.16 nM [25]: 4110
OD450 nm (as headed), mouse B lymphocyte proliferation; antibody 0.8 nM [25]: 2070
OD450 nm (as headed), mouse B lymphocyte proliferation; antibody 4 nM [25]: 488
OD450 nm (as headed), mouse B lymphocyte proliferation; antibody 20 nM [25]: 367
OD450 nm (as headed), mouse B lymphocyte proliferation; antibody 100 nM [25]: 345
OD450 nm [26]: 0.574 OD450 nm
